Source: patent US20190309074A1, “DEGLYCOSYLATED ANTIBODY SPECIFICALLY BINDING TO CLEC14A AND USES THEREOF” (WOORI TECHNOLOGIES CORPORATION, priority 2016, published 2019)

How the values were obtained:
[1] = test system: phosphorylation of VEGFR, Akt and ERK; assay: immunoblot of VEGF-dependent signaling in HUVECs; assay type: cell-based, human; settings: VEGF-treated HUVECs
Description: In order to investigate effects of deglyco C1 IgG on VEGF-dependent signaling actions in endothelial cells, VEGF-treated HUVECs were subjected to immunoblot analysis in the presence or absence of deglyco C1 IgG to monitor changes in phosphorylation of VEGFR (VEGF receptor), Akt and ERK (extracellular signal-regulated kinase).

[2] = in vivo toxicity in normal mouse; settings: intravenous, twice a week
Description: In order to investigate in vivo toxicity of deglyco C1 IgG, deglyco C1 IgG was intravenously injected into a normal mouse twice a week, and hepatic and renal functions, body weight, and apoptosis conditions of hepatic and renal tissues between control groups and experimental groups were then compared. The hepatic function was investigated by measuring serum concentrations of glutamic-oxaloacetic transaminase (GOT), glutamic pyruvic transaminase (GPT), and total bilirubin (TBIL), and the renal function was investigated by measuring the concentrations of blood urea nitrogen (BUN) and creatinine (CRE). Apoptosis was measured by TUNEL staining.

[3] = test system: HUVECs; assay: flow cytometry binding to endothelial cells; assay type: cell-based, human
Experimental: In order to identify whether or not deglyco C1 IgG binds to human endothelial cells, flow cytometry was conducted with HUVECs. […] In addition, in order to measure binding affinity of C1 IgG to hclec14a-ECD (extracellular domain of human clec14a), binding affinity of antibody-antigen binding was measured in real time. It can be seen that deglyco C1 IgG has a KD constant (equilibrium dissociation constant) of 6 nM, which is similar to that of parent antibody IgG (FIG. 3C).

[4] = test system: U87 human glioma; assay: U87 tumor growth; assay type: in vivo
[5] = test system: HUVECs; assay: HUVEC morphology by immunocytochemistry; assay type: cell-based, human
Experimental: (§1) In addition, the morphology of HUVEC was evaluated in the presence or absence of deglyco C1 IgG using immunocytochemistry. […] In order to evaluate effects of deglyco C1 IgG on the activity of endothelial cells, which is an initial inflammatory response to a harmful stimulus, HUVECs were treated with deglyco C1 IgG, and expression of an endothelial cell activity marker including VCAM-1 (vascular cell adhesion molecule-1) and ICAM-1 (intercellular cell adhesion molecule-1) was measured to monitor HUVEC activity. Human tumor necrosis factor-alpha (hTNFα) was used as a positive control group for endothelial cell activity.
In order to investigate correlations between tumor angiogenesis and clec14a, first, xenograft tumor models including SNU182 human liver cell or CFPAC-1 human pancreatic cancer cell carcinomas were established, and immunohistochemistry was conducted on commercially available antibodies of clec14a and CD31, which is a well-known endothelial marker protein. Immunohistochemistry was conducted as follows. HUVECs (5×10^4) grown on a 0.1% (w/v) gelatin-coated glass cover slip were incubated in the presence or absence of deglyco C1 IgG for 24 hours at 37° C. […]

[6] = test system: binding of clec14a-CTLD to HUVECs; assay: cell ELISA: hclec14a-CTLD-Fc-HRP binding to HUVECs; assay type: cell-based, human; settings: increasing antibody concentration
Experimental: In order to analyze action mechanisms of deglyco C1 IgG at a molecule-scale, specifically, in angiogenesis, HUVECs were treated with hclec14a-CTLD-Fc-HRP (HRP-labeled hclec14a-CTLD-Fc) in the absence or presence of an increasing concentration of parent antibody IgG or deglyco C1 IgG.

[7] = test system: VEGF-dependent blood vessel growth in rat aorta; assay: ex vivo rat aortic ring assay; settings: cultured in combination with VEGF
Experimental: In order to further investigate effects of deglyco C1 IgG on VEGF-dependent angiogenesis, ex vivo rat aortic ring assay was conducted in the presence or absence of deglyco C1 IgG and bevacizumab. Blood vessels were almost not grown in the rat aorta in endothelial basal medium (EBM), whereas most blood vessels were grown in the rat aorta under VEGF expression conditions.

[8] = test system: HUVEC activity; assay: endothelial cell activation (VCAM-1, ICAM-1 expression); assay type: cell-based, human
Experimental: as §1

[9] = test system: HUVEC migration; assay: HUVEC migration (wound healing) assay; assay type: cell-based, human; settings: % of MOCK
Experimental: (§2) Genetic mutation introduced during antibody engineering induces unpredicted defects, resulting in deterioration in antibody functions. In order to isolate antibodies for suppressing clec14a-mediated angiogenesis, tube formation and endothelial cell migration assay using human umbilical vein endothelial cells (HUVECs) were conducted in the presence or absence of clone 1 IgG and deglyco C1-C4 IgGs. Among the four types of deglyco IgGs, deglyco C1 IgG was selected as a candidate antibody. […] In addition, it can be seen that deglyco C1 IgG includes desired alterations (N32R/N33C/S34G) in the amino acid sequence in light chain CDR1.
(§3) In order to compare in vitro angiogenesis suppression effect between deglyco C1 IgG and bevacizumab, tube formation and migration assay were conducted in the presence or absence of parent antibody IgG, deglyco C1 IgG or bevacizumab as a positive control group.

[10] = test system: HUVEC tube formation; assay: HUVEC tube formation assay; assay type: cell-based, human; settings: branches as % of MOCK
Experimental: as §2, §3
In order to investigate in vitro effects of deglyco C1 IgG on VEGF-dependent angiogenesis, HUVECs were treated with VEGF in the presence or absence of deglyco C1 IgG, and then HUVEC tube formation assay was conducted. 150 μl of Matrigel was added to a 48-well plate and incubated at 37° C. for 30 minutes. HUVEC (10^5) cultured in EGM-2 were collected, seeded on the Matrigel-coated plate and incubated at 37° C. for 18 hours in the presence or absence of clone 1 IgG, parent antibody IgG, deglycosylated clec14a-CTLD IgG or bevacizumab. HUVECs cultured in VEGF-containing EBM (endothelial cell basal medium) were seeded to the Matrigel-coated plate and incubated at 37° C. for 18 hours in the presence or absence of deglyco C1 IgG (20 μg ml^−1).

B1: deglyco C1 IgG: deglycosylated clone 1 IgG; light chain CDR1 TGSSSNIGRCGVT (SEQ ID NO: 2), N32R/N33C/S34G (antibody, V domains shown)
VH: EVQLVESGGGLVQPGGSLRLSCAVSGFTFSGYDMSWIRQAPGKGLEWVAGIYPDGGNTYYADSVKGRFTISRDDSKNTFYLQMNSLRAEDTAVYYCARGATWWVLGPFDYWGQGTLVTVSS
VL: DIQLTQSPSSLSASVGDRVTITCTGSSSNIGRCGVTWYQQKPGKAPKLLIYADSHRPSGVPSRFSGSGSGTDFTLTISSLQPEDFATYYCGAWDDSLSGYVFGQGTKVEIKR
[1]
  VEGF-dependent phosphorylation of VEGFR, Akt and ERK: almost no effect
[2]
  apoptosis of hepatic and renal tissues (TUNEL): apoptosis conditions were observed
  body weight: no significant change in body weight
  hepatic and renal functions (GOT, GPT, TBIL, BUN, CRE): no significant change
[3]
  binding to surfaces of HUVECs: specifically bound to the surfaces of HUVECs
[4]; U87 tumor model
  body weight: no impact on body weight
[4]; measured weekly for one month
  tumor size of U87 cells: significantly reduces the tumor sizes
[5]
  morphology of HUVECs: did not change the morphology
[6]
  suppression of binding of clec14a-CTLD to HUVECs: significantly suppressed
[7]
  number of blood vessels grown in the rat aorta: reduced the number of blood vessels grown in the rat aorta
[8]
  HUVEC activity (VCAM-1, ICAM-1 expression): almost no impact
[9]
  inhibitory activity against HUVEC migration: most excellent inhibitory activity
[9]; listed as Deglyco C1 IgG
  inhibitory activity against HUVEC migration: inhibited migration to a similar extent to bevacizumab
[10]
  inhibitory activity against HUVEC tube formation: most excellent inhibitory activity
[10]; listed as Deglyco C1 IgG
  inhibitory activity against HUVEC tube formation: significantly suppressed
